Assay results from the supplement of paper PMC7877785.
± gives the uncertainty stated by the source.

Assay: self-splicing fitness, log relative to wild type (ln ratio); higher = more splicing; Tetrahymena group I intron in knt gene, E. coli kanamycin selection, DiMSum; sequences stand for … in CUCUCU…GGAGGGAAAAGUUAUCAGGCAUGCACCUGGUAGCUAGUCUUUAAACCAAUAGAUUGCAUCGGUUUAAAAGGCAAGACCGUCAAAUUGCGGGAAAGGGGUCAACAGCCGUUCAGUACCAAGUCUCAGGGGAAACUUUGAGAUGGCCUUGCAAAGGGUAUGGUAAUAAGCUGACGGACAUGGUCCUAACCACGCAGCCAAGUCCUAAGUCAACAGAUCUUCUGUUGAUAUGGAUGCAGUUCACAGACUAAAUGUCGGUCGGGGAAGAUGUAUUCUUCUCAUAAGAUAUAGUCGGACCUCUCCUUAAUGGGAGCUAGCGGAUGAAGUGAUGCAACACUGGAGCCGCUGGGAACUAAUUUGUAUGCGAAAGUAUAUUGAUUAGUUUUGGAGUACUCGUGGUCG
How it was run: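 Six replicate transformations of E. coli BL21(DE3) with a pET-22b(+) library were grown overnight at 37°C or 30°C. The library randomised all eight P1ex-region intron nucleotides, the intron lying in the knt kanamycin-resistance gene, and plates were LB agar with or without 25 μg/mL kanamycin plus 100 μg/mL carbenicillin, 50 μM IPTG and 0.2% rhamnose. Pooled colonies were amplicon-sequenced on an Illumina HiSeq 2500, and fitness is the DiMSum error-weighted combination of wild-type-normalised replicate fold changes, kanamycin versus none.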

Sequence | self-splicing fitness (ln) (30 °C) | self-splicing fitness (ln) (37 °C)
UCACAGCAAUAUUACGGAUA | -2.87 ± 0.16 | -1.47 ± 0.12
UAGAAGCAAUAUUACGCGUG | -1.17 ± 0.13 | -0.211 ± 0.13
GCGGAGCAAUAUUACGUUCA | -0.896 ± 0.11 | -0.33 ± 0.096
CUCAAGCAAUAUUACGGCAU | -2.66 ± 0.18 | -1.58 ± 0.24
UGGGAGCAAUAUUACGUGUU | -3.63 ± 0.23 | -2.91 ± 0.34
UACGAGCAAUAUUACGACGA | -1.85 ± 0.18 | -0.325 ± 0.13
GCCGAGCAAUAUUACGUUUC | -3.12 ± 0.14 | -2.28 ± 0.15
UUAGAGCAAUAUUACGCUAU | -2.27 ± 0.23 | -1.75 ± 0.26
CGACAGCAAUAUUACGAAAA | -3.75 ± 0.26 | -1.93 ± 0.2
AGUUAGCAAUAUUACGAAGG | -4.03 ± 0.22 | -3.4 ± 0.28
AUUGAGCAAUAUUACGACAG | -3.48 ± 0.26 | -2.18 ± 0.21
GGAUAGCAAUAUUACGUGGG | – | -0.24 ± 0.16
CACUAGCAAUAUUACGAGGA | -4.01 ± 0.31 | -1.49 ± 0.15
GGGUAGCAAUAUUACGACAG | -2.84 ± 0.2 | -1.9 ± 0.21
GUAGAGCAAUAUUACGCUCU | -3.31 ± 0.43 | –
AUGGAGCAAUAUUACGAUCA | – | -1.09 ± 0.25
CUCGAGCAAUAUUACGUUGA | -3.86 ± 0.28 | -2.63 ± 0.38
UCGUAGCAAUAUUACGGAAG | -2.55 ± 0.29 | -1.94 ± 0.28
GAGCAGCAAUAUUACGCGUA | -0.655 ± 0.18 | -0.959 ± 0.14
AUCUAGCAAUAUUACGUUAC | -1.99 ± 0.27 | -1.74 ± 0.34
UCUCAGCAAUAUUACGCGAU | -4.5 ± 0.34 | -2.1 ± 0.36
ACGUAGCAAUAUUACGCGGG | -2.32 ± 0.12 | -0.863 ± 0.11
CAGUAGCAAUAUUACGUUCA | -0.986 ± 0.14 | -2.31 ± 0.23
CCACAGCAAUAUUACGCCAC | -3.52 ± 0.27 | -2.54 ± 0.27
AUUGAGCAAUAUUACGAUCG | -2.34 ± 0.34 | -1.04 ± 0.19

Sequence | self-splicing fitness (ln) (30 °C) | self-splicing fitness (ln) (37 °C)
ACUCAGCAAUAUUACGGCGU | -0.555 ± 0.059 | 0.0604 ± 0.074
ACAGAGCAAUAUUACGAUCA | -3.4 ± 0.28 | –
GGCUAGCAAUAUUACGACUU | -0.0915 ± 0.084 | -0.0421 ± 0.11
AGUAAGCAAUAUUACGGGAG | -3.4 ± 0.2 | -2.43 ± 0.2
UCAUAGCAAUAUUACGUACU | -4.14 ± 0.19 | -2.96 ± 0.19
CACCAGCAAUAUUACGCAGU | -3.61 ± 0.19 | -2.09 ± 0.23
UCCCAGCAAUAUUACGGAUU | -2.66 ± 0.092 | -0.582 ± 0.08
UGAUAGCAAUAUUACGAGCC | -3.7 ± 0.47 | –
AUGAAGCAAUAUUACGAUGC | -1.95 ± 0.13 | -0.813 ± 0.17
GCUCAGCAAUAUUACGCUUU | -0.857 ± 0.077 | -0.887 ± 0.083
AUGGAGCAAUAUUACGGUAG | -3.61 ± 0.33 | -2.51 ± 0.41
CCUGAGCAAUAUUACGUAAA | – | -2.49 ± 0.33
UUAGAGCAAUAUUACGCUCA | -1.75 ± 0.18 | -0.916 ± 0.26
ACUGAGCAAUAUUACGGUGA | -2.02 ± 0.13 | -3.65 ± 0.24
UCCAAGCAAUAUUACGAUAA | -2.01 ± 0.11 | -0.704 ± 0.11
UCGGAGCAAUAUUACGCGUG | 0.284 ± 0.17 | -0.281 ± 0.17
UGAUAGCAAUAUUACGUUCG | -0.432 ± 0.076 | 0.4 ± 0.1
UGAAAGCAAUAUUACGACGG | -0.788 ± 0.1 | -0.64 ± 0.1
UUCUAGCAAUAUUACGGACG | -1.14 ± 0.15 | 0.26 ± 0.15
CAAGAGCAAUAUUACGAGAC | -2.43 ± 0.37 | -1.93 ± 0.35
GCAUAGCAAUAUUACGCGGC | -3.32 ± 0.33 | -2.38 ± 0.34
AAACAGCAAUAUUACGUACG | -2.54 ± 0.11 | -0.985 ± 0.11
CAUGAGCAAUAUUACGAGAG | -3.22 ± 0.16 | -3.27 ± 0.23
UCUUAGCAAUAUUACGAGCU | -3.09 ± 0.34 | -1.01 ± 0.26
